Test results from patent US20060099643A1, “Method for determining the regulation of xenobiotic removal” (priority 2002, published 2006).

Experiments:
ER-α [1] = molecular target: T1, ER-α (UniProt P03372 297-554, limits assumed); experiment: Thermofluor thermal shift; ER-α 8 µM with tamoxifen 20 µM; SRC-3 11 µM
T1 construct: also called estrogen receptor alpha
T1 sequence (looked up): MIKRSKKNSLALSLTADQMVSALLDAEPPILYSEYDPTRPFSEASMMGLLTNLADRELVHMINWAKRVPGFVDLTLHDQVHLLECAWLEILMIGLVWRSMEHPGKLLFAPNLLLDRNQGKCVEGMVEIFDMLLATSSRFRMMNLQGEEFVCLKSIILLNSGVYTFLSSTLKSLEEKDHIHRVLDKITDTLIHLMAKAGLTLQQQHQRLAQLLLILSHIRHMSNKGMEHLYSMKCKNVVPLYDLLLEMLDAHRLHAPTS

ER-α [2] = molecular target: T1, ER-α; experiment: Thermofluor thermal shift; ER-α 8 µM with estradiol 20 µM; SRC-3 11 µM
ER-β [3] = molecular target: T2, ER-β (UniProt Q92731 256-505, limits assumed); experiment: Thermofluor thermal shift; ER-β 8 µM with estradiol 20 µM; SRC-3 11 µM
T2 construct: also called estrogen receptor beta

ER-β [4] = molecular target: T2, ER-β; experiment: Thermofluor thermal shift; ER-β 8 µM with tamoxifen 20 µM; SRC-3 11 µM
ER-β [5] = molecular target: T2, ER-β; experiment: Thermofluor thermal shift; ER-β 8 µM with ICI-182780 20 µM; SRC-3 11 µM
ER-β [6] = molecular target: T2, ER-β; experiment: Thermofluor thermal shift; ER-β 8 µM with 2-methoxy-E2 20 µM; SRC-3 11 µM
ER-α [7] = molecular target: T1, ER-α; experiment: Thermofluor thermal shift; ER-α 8 µM, no ligand; SRC-3 11 µM
ER-β [8] = molecular target: T2, ER-β; experiment: Thermofluor thermal shift; ER-β 8 µM, no ligand; SRC-3 11 µM
ER-α [9] = molecular target: T1, ER-α; experiment: Thermofluor thermal shift; ER-α 8 µM with estrone 20 µM; SRC-3 11 µM
ER-β [10] = molecular target: T2, ER-β; experiment: Thermofluor thermal shift; ER-β 8 µM with estrone 20 µM; SRC-3 11 µM
ER-β [11] = molecular target: T2, ER-β; experiment: Thermofluor thermal shift; ER-β 8 µM with 17-α-ethylene-E2 20 µM; SRC-3 11 µM
ER-β [12] = molecular target: T2, ER-β; experiment: Thermofluor thermal shift; ER-β 8 µM with 4-OH-tamoxifen 20 µM; SRC-3 11 µM
ER-α [13] = molecular target: T1, ER-α; experiment: Thermofluor thermal shift; ER-α 8 µM with 17-α-ethylene-E2 20 µM; SRC-3 11 µM
ER-α [14] = molecular target: T1, ER-α; experiment: Thermofluor thermal shift; ER-α 8 µM with ICI-182780 20 µM; SRC-3 11 µM
ER-α [15] = molecular target: T1, ER-α; experiment: Thermofluor thermal shift; ER-α 8 µM with 2-methoxy-E2 20 µM; SRC-3 11 µM
ER-α [16] = molecular target: T1, ER-α; experiment: Thermofluor thermal shift; ER-α 8 µM with 4-OH-tamoxifen 20 µM; SRC-3 11 µM

T2 sequence (Q92731 256-505 limits assumed): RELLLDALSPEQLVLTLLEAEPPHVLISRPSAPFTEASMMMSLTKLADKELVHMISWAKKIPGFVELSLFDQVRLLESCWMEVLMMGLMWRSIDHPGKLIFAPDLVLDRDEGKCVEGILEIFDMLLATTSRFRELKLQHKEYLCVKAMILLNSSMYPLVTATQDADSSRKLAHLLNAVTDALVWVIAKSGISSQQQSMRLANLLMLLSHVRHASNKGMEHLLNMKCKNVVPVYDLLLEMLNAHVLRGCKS

change in Tm stabilization from the receptor-ligand ΔTm (ER-α [1]): 1.1 °C | change in Tm stabilization from the receptor-ligand ΔTm (ER-α [2]): 3.8 °C | change in Tm stabilization from the receptor-ligand ΔTm (ER-β [3]): 1.7 | change in Tm stabilization from the receptor-ligand ΔTm (ER-β [4]): 1.3 | change in Tm stabilization from the receptor-ligand ΔTm (ER-β [5]): 0.9 °C | change in Tm stabilization from the receptor-ligand ΔTm (ER-β [6]): 2.5 °C | change in Tm stabilization from the receptor-ligand ΔTm (ER-α [7]): 1.5 | change in Tm stabilization from the receptor-ligand ΔTm (ER-β [8]): 0.9 | change in Tm stabilization from the receptor-ligand ΔTm (ER-α [9]): 3.5 °C | change in Tm stabilization from the receptor-ligand ΔTm (ER-β [10]): 1.6 °C | change in Tm stabilization from the receptor-ligand ΔTm (ER-β [11]): 2.6 | change in Tm stabilization from the receptor-ligand ΔTm (ER-β [12]): 1.2 °C | change in Tm stabilization from the receptor-ligand ΔTm (ER-α [13]): 4.5 °C | change in Tm stabilization from the receptor-ligand ΔTm (ER-α [14]): 0.5 °C | change in Tm stabilization from the receptor-ligand ΔTm (ER-α [15]): 5.3 | change in Tm stabilization from the receptor-ligand ΔTm (ER-α [16]): 0.2
Substance: co-activator protein SRC-3 (from UniProt Q9Y6Q9 627-829)
